Source: US11653679B2, “High-purity steviol glycosides” (PureCircle Sdn Bhd, priority 2014, dated 2023)
Positions count from the first letter of the chain named.

B1: UGT76G1var73: UGT76G1 variant, mutations F22Y_D301N_R334H_Q342E_V396F (protein, UniProt Q6VAB4 1-458, looked up, variant F22Y D301N R334H Q342E V396F)
UDP-glycosyltransferase 76G1: MENKTETTVRRRRRIILFPVPYQGHINPILQLANVLYSKGFSITIFHTNFNKPKTSNYPHFTFRFILDNDPQDERISNLPTHGPLAGMRIPIINEHGADELRRELELLMLASEEDEEVSCLITDALWYFAQSVADSLNLRRLVLMTSSLFNFHAHVSLPQFDELGYLDPDDKTRLEEQASGFPMLKVKDIKSAYSNWQILKEILGKMIKQTKASSGVIWNSFKELEESELETVIREIPAPSFLIPLPKHLTASSSSLLDHDRTVFQWLDQQPPSSVLYVSFGSTSEVDEKDFLEIARGLVNSKQSFLWVVRPGFVKGSTWVEPLPDGFLGERGHIVKWVPQEEVLAHGAIGAFWTHSGWNSTLESVCEGVPMIFSDFGLDQPLNARYMSDVLKVGFYLENGWERGEIANAIRRVMVDEEGEYIRQNARVLKQKADVSLMKGGSSYESLESLVSYISSL
B2: UGT76G1var95: UGT76G1 variant, mutations A33G_I295M_K303G_I335V_A385T (protein, UniProt Q6VAB4 1-458, looked up, variant A33G I295M K303G I335V A385T)
UDP-glycosyltransferase 76G1: B1 UDP-glycosyltransferase 76G1 with Y22F, A33G, I295M, N301D, K303G, H334R, I335V, E342Q, A385T, F396V
B3: UGT76G1var5: UGT76G1 variant, mutations F22Y_I373L_P382M (protein, UniProt Q6VAB4 1-458, looked up, variant F22Y I373L P382M)
UDP-glycosyltransferase 76G1: B1 UDP-glycosyltransferase 76G1 with N301D, H334R, E342Q, I373L, P382M, F396V
B4: UGT76G1var86: UGT76G1 variant, mutations E224A_T284L_V396F_Y397E_I407V (protein, UniProt Q6VAB4 1-458, looked up, variant E224A T284L V396F Y397E I407V)
UDP-glycosyltransferase 76G1: B1 UDP-glycosyltransferase 76G1 with Y22F, E224A, T284L, N301D, H334R, E342Q, Y397E, I407V
B5: UGT76G1var75: UGT76G1 variant, mutations F41L_A239I_Q266S_S375M_P382M (protein, UniProt Q6VAB4 1-458, looked up, variant F41L A239I Q266S S375M P382M)
UDP-glycosyltransferase 76G1: B1 UDP-glycosyltransferase 76G1 with Y22F, F41L, A239I, Q266S, N301D, H334R, E342Q, S375M, P382M, F396V
B6: UGT76G1var78: UGT76G1 variant, mutations V279I_V300A_V310I_I335V_S357C (protein, UniProt Q6VAB4 1-458, looked up, variant V279I V300A V310I I335V S357C)
UDP-glycosyltransferase 76G1: B1 UDP-glycosyltransferase 76G1 with Y22F, V279I, V300A, N301D, V310I, H334R, I335V, E342Q, S357C, F396V
B7: UGT76G1var76: UGT76G1 variant, mutations F22Y_A239I_L246F_I295M_R334K (protein, UniProt Q6VAB4 1-458, looked up, variant F22Y A239I L246F I295M R334K)
UDP-glycosyltransferase 76G1: B1 UDP-glycosyltransferase 76G1 with A239I, L246F, I295M, N301D, H334K, E342Q, F396V
B8: UGT76G1var85: UGT76G1 variant, mutations T284L_G348P_F377C_P382M_N409R (protein, UniProt Q6VAB4 1-458, looked up, variant T284L G348P F377C P382M N409R)
UDP-glycosyltransferase 76G1: B1 UDP-glycosyltransferase 76G1 with Y22F, T284L, N301D, H334R, E342Q, G348P, F377C, P382M, F396V, N409R
B9: UGT76G1var6: UGT76G1 variant, mutations Q266S_S357N_I373L (protein, UniProt Q6VAB4 1-458, looked up, variant Q266S S357N I373L)
UDP-glycosyltransferase 76G1: B1 UDP-glycosyltransferase 76G1 with Y22F, Q266S, N301D, H334R, E342Q, S357N, I373L, F396V
B10: UGT76G1var84: UGT76G1 variant, mutations F22L_Q266S_F314S_A352G_S357C (protein, UniProt Q6VAB4 1-458, looked up, variant F22L Q266S F314S A352G S357C)
UDP-glycosyltransferase 76G1: B1 UDP-glycosyltransferase 76G1 with Y22L, Q266S, N301D, F314S, H334R, E342Q, A352G, S357C, F396V
B11: UGT76G1var80: UGT76G1 variant, mutations L243P_L379A_S389E_Q425E_Q432E (protein, UniProt Q6VAB4 1-458, looked up, variant L243P L379A S389E Q425E Q432E)
UDP-glycosyltransferase 76G1: B1 UDP-glycosyltransferase 76G1 with Y22F, L243P, N301D, H334R, E342Q, L379A, S389E, F396V, Q425E, Q432E
B12: UGT76G1var83: UGT76G1 variant, mutations I43V_Q342E_S357N_S375R_L379G (protein, UniProt Q6VAB4 1-458, looked up, variant I43V Q342E S357N S375R L379G)
UDP-glycosyltransferase 76G1: B1 UDP-glycosyltransferase 76G1 with Y22F, I43V, N301D, H334R, S357N, S375R, L379G, F396V
B13: UGT76G1var79: UGT76G1 variant, mutations E224D_T284I_V366I_I373L_K393G (protein, UniProt Q6VAB4 1-458, looked up, variant E224D T284I V366I I373L K393G)
UDP-glycosyltransferase 76G1: B1 UDP-glycosyltransferase 76G1 with Y22F, E224D, T284I, N301D, H334R, E342Q, V366I, I373L, K393G, F396V
B14: UGT76G1var4: UGT76G1 variant, mutations E224D_E231A_F265I (protein, UniProt Q6VAB4 1-458, looked up, variant E224D E231A F265I)
UDP-glycosyltransferase 76G1: B1 UDP-glycosyltransferase 76G1 with Y22F, E224D, E231A, F265I, N301D, H334R, E342Q, F396V
B15: UGT76G1var88: UGT76G1 variant, mutations A239V_T284I_V310I_Q342K_L379A (protein, UniProt Q6VAB4 1-458, looked up, variant A239V T284I V310I Q342K L379A)
UDP-glycosyltransferase 76G1: B1 UDP-glycosyltransferase 76G1 with Y22F, A239V, T284I, N301D, V310I, H334R, E342K, L379A, F396V
B16: UGT76G1var96: UGT76G1 variant, mutations F22L_E229A_L243P_F377C_A385T (protein, UniProt Q6VAB4 1-458, looked up, variant F22L E229A L243P F377C A385T)
UDP-glycosyltransferase 76G1: B1 UDP-glycosyltransferase 76G1 with Y22L, E229A, L243P, N301D, H334R, E342Q, F377C, A385T, F396V
B17: UGT76G1var90: UGT76G1 variant, mutations E231A_S241I_S274G_Y397Q_Q425E (protein, UniProt Q6VAB4 1-458, looked up, variant E231A S241I S274G Y397Q Q425E)
UDP-glycosyltransferase 76G1: B1 UDP-glycosyltransferase 76G1 with Y22F, E231A, S241I, S274G, N301D, H334R, E342Q, F396V, Y397Q, Q425E
B18: UGT76G1var93: UGT76G1 variant, mutations I43V_Q266E_S375M_S389E_V394I (protein, UniProt Q6VAB4 1-458, looked up, variant I43V Q266E S375M S389E V394I)
UDP-glycosyltransferase 76G1: B1 UDP-glycosyltransferase 76G1 with Y22F, I43V, Q266E, N301D, H334R, E342Q, S375M, S389E, V394I, F396V
B19: UGT76G1var82: UGT76G1 variant, mutations E224D_L243A_F265L_R334H_A352G (protein, UniProt Q6VAB4 1-458, looked up, variant E224D L243A F265L R334H A352G)
UDP-glycosyltransferase 76G1: B1 UDP-glycosyltransferase 76G1 with Y22F, E224D, L243A, F265L, N301D, E342Q, A352G, F396V
B20: UGT76G1var77: UGT76G1 variant, mutations A239V_F265I_I295T_D301N_K393G (protein, UniProt Q6VAB4 1-458, looked up, variant A239V F265I I295T D301N K393G)
UDP-glycosyltransferase 76G1: B1 UDP-glycosyltransferase 76G1 with Y22F, A239V, F265I, I295T, H334R, E342Q, K393G, F396V
B21: UGT76G1var87: UGT76G1 variant, mutations S241I_L243A_V300A_F314S_N409R (protein, UniProt Q6VAB4 1-458, looked up, variant S241I L243A V300A F314S N409R)
UDP-glycosyltransferase 76G1: B1 UDP-glycosyltransferase 76G1 with Y22F, S241I, L243A, V300A, N301D, F314S, H334R, E342Q, F396V, N409R
B22: UGT76G1var81: UGT76G1 variant, mutations A33G_T263S_S274G_V279I_Y397E (protein, UniProt Q6VAB4 1-458, looked up, variant A33G T263S S274G V279I Y397E)
UDP-glycosyltransferase 76G1: B1 UDP-glycosyltransferase 76G1 with Y22F, A33G, T263S, S274G, V279I, N301D, H334R, E342Q, F396V, Y397E
B23: UGT76G1var74: UGT76G1 variant, mutations I295T_I373L_S375R_Y397Q_Q432E (protein, UniProt Q6VAB4 1-458, looked up, variant I295T I373L S375R Y397Q Q432E)
UDP-glycosyltransferase 76G1: B1 UDP-glycosyltransferase 76G1 with Y22F, I295T, N301D, H334R, E342Q, I373L, S375R, F396V, Y397Q, Q432E
B24: UGT76G1var91: UGT76G1 variant, mutations E224A_L246F_T263S_F265I_Q342K (protein, UniProt Q6VAB4 1-458, looked up, variant E224A L246F T263S F265I Q342K)
UDP-glycosyltransferase 76G1: B1 UDP-glycosyltransferase 76G1 with Y22F, E224A, L246F, T263S, F265I, N301D, H334R, E342K, F396V
B25: UGT76G1var89: UGT76G1 variant, mutations F41L_E229A_E231A_F265L_P272A (protein, UniProt Q6VAB4 1-458, looked up, variant F41L E229A E231A F265L P272A)
UDP-glycosyltransferase 76G1: B1 UDP-glycosyltransferase 76G1 with Y22F, F41L, E229A, E231A, F265L, P272A, N301D, H334R, E342Q, F396V
B26: UGT76G1var92: UGT76G1 variant, mutations K303G_S357N_V366I_V394I_I407V (protein, UniProt Q6VAB4 1-458, looked up, variant K303G S357N V366I V394I I407V)
UDP-glycosyltransferase 76G1: B1 UDP-glycosyltransferase 76G1 with Y22F, N301D, K303G, H334R, E342Q, S357N, V366I, V394I, F396V, I407V

Assay: Directed evolution of UGT76G1, Rebaudioside D to Rebaudioside M, round 1 (Example 26)
Type: biochemical
Details: 100 μL fresh lysate, 0.5 mM Rebaudioside D, 30° C., pH 7.2
Method in brief: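 Conversion and initial rate were determined by HPLC with CAD detection on samples taken at 2, 4, 7 and 24 h. Reactions ran at 30 °C in 50 mM phosphate buffer pH 7.2 with lysate, Rebaudioside D (0.5 mM), UDP-glucose (2.5 mM) and MgCl2 (3 mM).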

| Molecule | conversion Reb D to Reb M after 24 h | initial rate |
| --- | --- | --- |
| B1 | 0.8% | 8.7E+05 Reb M area/min |
| B2 | −1.3% | −1.7E+05 Reb M area/min |
| B3 | 3.5% | 2.3E+06 Reb M area/min |
| B4 | 1.6% | 3.8E+05 Reb M area/min |
| B5 | 0.8% | −1.3E+05 Reb M area/min |
| B6 | 3.2% | 8.2E+05 Reb M area/min |
| B7 | 2.6% | 7.2E+05 Reb M area/min |
| B8 | 1.8% | 4.0E+05 Reb M area/min |
| B9 | 0.5% | 1.8E+06 Reb M area/min |
| B10 | 1.2% | 2.3E+05 Reb M area/min |
| B11 | 1.0% | 2.1E+05 Reb M area/min |
| B12 | 0.5% | 4.3E+04 Reb M area/min |
| B13 | 8.5% | 3.8E+06 Reb M area/min |
| B14 | – | 8.6E+06 Reb M area/min |
| B15 | 1.6% | 3.8E+05 Reb M area/min |
| B16 | 1.2% | 2.7E+05 Reb M area/min |
| B17 | – | 1.9E+07 Reb M area/min |
| B18 | 1.8% | 4.5E+05 Reb M area/min |
| B19 | 1.1% | 2.5E+05 Reb M area/min |
| B20 | 1.9% | 4.4E+05 Reb M area/min |
| B21 | – | 2.1E+07 Reb M area/min |
| B22 | 15.0% | 6.5E+06 Reb M area/min |
| B23 | 0.6% | 9.6E+04 Reb M area/min |
| B24 | 1.2% | 2.3E+05 Reb M area/min |
| B25 | 1.2% | 2.1E+05 Reb M area/min |
| B26 | 1.6% | 3.6E+05 Reb M area/min |
